Measured values taken from the supplement of paper PMC12042874.
± gives the uncertainty stated by the source.

Assay: amyloid nucleation score (Sup35N fusion, yeast selection) (log enrichment); library NNK1; higher = more nucleation; inactive = no reads after selection
Procedure, shortened: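 Sup35N was fused to peptides of 20 random codons and expressed in psi-negative yeast, which were induced with 100 μM copper sulfate for 24 hours and then grown on medium lacking adenine and uracil for 7 days at 30°C. Plasmid inserts from input and output were sequenced on Illumina. The nucleation score is the DiMSum log enrichment of output over input reads, centred on the mode score of non-aggregating sequences. Sequences with under 100 input reads were left out, and random libraries had three technical output replicates.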

Row | Substance | amyloid nucleation score
1 | VGWASQKINYWLETSGF | 0.329 ± 0.68
2 | VGWGAMQGLMSGGLYIPV | -0.671 ± 2.1
3 | VGYEVLSHYDAGIVSLVYLS | 0.645 ± 0.53
4 | VHAHVSREIFTGQ | 0.659 ± 1
5 | VHASYIVRIRHLSGILEGAV | 0.369 ± 0.46
6 | VHESTSHRMWRSLI | 1.15 ± 0.41
7 | VHFQYFLMLKLAQFVVVWNK | 0.669 ± 0.84
8 | VHGGAWLTGGSRTGAQFIAV | -0.402 ± 0.59
9 | VIFSNWVTAGFACFMHLLVR | 0.398 ± 0.9
10 | VIGLVLARLYFVQIEVLLHR | 1.24 ± 0.61
11 | VIKMFRRSDDIVVSKPLRE | -0.3 ± 0.5
12 | VILLILNYYSHWDVLLK | -0.111 ± 0.4
13 | VILTYGTVRY | 0.38 ± 0.59
14 | VILWRSRIASRCPTLM | -0.415 ± 1.4
15 | VIRCRKFRTVWILFLAISLV | inactive
16 | VIRRLRSTYMSDMLLEGGLA | 0.864 ± 0.56
17 | VISGVCFSDIFLDVPTLWLW | 0.393 ± 0.3
18 | VITIGMFCRIIEGHYVMYLT | 0.089 ± 0.47
19 | VIVHIWRET | 3.92 ± 0.11
20 | VIVQKSLS | -0.086 ± 0.61
21 | VIVWGSRSFLGC | 3.49 ± 0.1
22 | VIVWVWSCVM | 6.247 ± 0.055
23 | VIYFLRYHLFNSLVSPHNRR | inactive
24 | VKCGLG | 0.696 ± 0.84
25 | VKFKGTTLCYIFDMDFMHGI | 0.948 ± 0.14

Row | Substance | amyloid nucleation score
26 | VKLAVREVTSEMPREKLTVA | 0.236 ± 0.26
27 | VKQSST | 0.212 ± 0.66
28 | VKRHNLLCWRFMDFTINLGG | 4.01 ± 0.13
29 | VKSGALKYRKIGAYGTGSRL | 0.728 ± 1.2
30 | VKSRYLFRCSLLFEHDTGIC | 0.01 ± 0.23
31 | VKTPSVRIKWDVISLSLPCA | 0.156 ± 0.53
32 | VKYGDSRLADAWNFVSNK | -0.476 ± 0.3
33 | VLEYPSTSAARFSHRVKRK | 8.434 ± 0.047
34 | VLGRRKMIQVNFNFKYLSWD | 1.62 ± 0.45
35 | VLIGSLLCN | 0.878 ± 0.41
36 | VLIMYYGCLDDFLLRDYSLL | 0.856 ± 0.67
37 | VLKGNKRRVLNAWVAYVLRS | 0.273 ± 0.35
38 | VLLADVCLSVERGKVTDPGS | 1.25 ± 0.58
39 | VLNLIRRGIWGYHHEMGTG | -0.947 ± 0.81
40 | VLNYHLH | -0.569 ± 0.79
41 | VLRNDTMGAGANF | -1.3 ± 0.39
42 | VLRRLRSWRKVELENNRGKM | inactive
43 | VLSWWTTNPSVMENTCCPWS | 2.09 ± 0.32
44 | VLTWMDVTDLLGCVLKLSPV | 1.36 ± 0.45
45 | VLVKQGVMA | 0.868 ± 0.78
46 | VLVSSCSTGDLVSSDPHSSV | inactive
47 | VLYMVEACLVWGIRQSESAV | 0.393 ± 0.73
48 | VLYSELLGFRKSIIIMVWTR | -0.015 ± 0.28
49 | VMDYYTMFFEMPRGRALIAN | inactive
50 | VMKLAVRR | -0.114 ± 0.91

Row | Substance | amyloid nucleation score
51 | VMLAGSDWLNGFRAESFCGI | -1.35 ± 2.1
52 | VMLPHHWSLNKNY | 0.264 ± 0.29
53 | VMSATVSSFWTEVCRMRTVT | 1.14 ± 0.66
54 | VMSGRCFTRCAFGLQRVPSV | 0.033 ± 0.63
55 | VMSVSWVCIGCLSEDISWVF | 5.884 ± 0.044
56 | VMYLSGCHLRLKCYLGSFNR | 5.51 ± 0.076
57 | VMYVPPMACSLS | -0.315 ± 0.77
58 | VNAMSLLILDAVLDKEQW | 0.921 ± 1
59 | VNDQAGRLGD | 0.904 ± 0.61
60 | VNEFLRFFLWSHLQWMI | -0.045 ± 0.28
61 | VNGQYMRSHWFGDTTLLPIC | -0.316 ± 0.24
62 | VNIRVRD | 0.023 ± 0.33
63 | VNKHL | -0.329 ± 0.36
64 | VNKRISGTLHDTYEGDLCL | -0.418 ± 0.75
65 | VNNYTF | 0.234 ± 0.28
66 | VNRFANVLRR | 0.234 ± 0.29
67 | VNRGVVVRITWIAKHYCMSE | 0.26 ± 0.38
68 | VNRYEVPLLGRRHDCEFSRT | -0.806 ± 1.1
69 | VNSSPFFMYKGVHFTWTYYS | 4.51 ± 0.1
70 | VNVFYLMFQNIIIQVFLCVF | inactive
71 | VNVKSVRYRKMSLGVYLVDW | 0.261 ± 0.68
72 | VNWFTR | 0.582 ± 0.56
73 | VPALQQIPYCMI | 0.524 ± 0.57
74 | VPENLKRMRVRAVSLGMSGE | 1.44 ± 0.5
75 | VPHLNGCISFWNVSVGYKVP | 5.44 ± 0.077

Row | Substance | amyloid nucleation score
76 | VPPASQISGPWARLSEMVSH | -1.12 ± 0.7
77 | VPRVYMFKFGIILFFYMHKA | -0.273 ± 0.3
78 | VPSSTVVDHSIYRGDMPSFA | 0.163 ± 0.41
79 | VPYRFPRMVKYGSMDFTSLE | 4.03 ± 0.094
80 | VQADFFCSAPGHCIWVNGMR | 1.73 ± 0.31
81 | VQFLIKPDLMTG | inactive
82 | VQIDK | 0.514 ± 0.33
83 | VRCCGPFRACIVLLAITKDG | -0.393 ± 1.4
84 | VRCIVTERLTLAMDW | 0.199 ± 0.47
85 | VREGPRSRSGG | 0.149 ± 0.41
86 | VRFTTIVYPSWFFSAW | 0.565 ± 0.45
87 | VRGHKWVAWNWMRVARAEQE | -0.257 ± 0.99
88 | VRHDITARERLSGLWQ | -0.047 ± 1.1
89 | VRHLRR | -0.496 ± 0.55
90 | VRKNSERGVK | -0.591 ± 0.4
91 | VRNETSCTAIVFRSE | 0.14 ± 0.22
92 | VRRVPKLVHAADLELWAGSE | -0.754 ± 1.1
93 | VRSCTWCGSEGPGTIPWLGD | 0.443 ± 0.39
94 | VRSFVHTWLDTTWA | -0.025 ± 0.36
95 | VRSNGYHVMFNTINRVWDTV | 0.672 ± 0.44
96 | VRSPDSLVVWDLVRH | -0.367 ± 0.49
97 | VRTYWTYANWIFMYKKRAQA | -1.85 ± 2.4
98 | VRVISLEVLGYFCPRRLAGA | inactive
99 | VRVLGVIMYARLLPVGLWGY | inactive
100 | VRVSVLLVYSGGRFSFPWVL | -0.063 ± 1.4

Row | Substance | amyloid nucleation score
101 | VSCGDELVGDRI | 0.171 ± 0.36
102 | VSCLNLIVSWYYANFGN | -0.17 ± 0.32
103 | VSCWRTVRTAF | 0.893 ± 0.59
104 | VSEIFFWFKSWRRRLRLRMG | inactive
105 | VSFTSIHMVIEDLRIKLNPA | -0.426 ± 0.71
106 | VSGAIRRDYIFDVIGRPTV | inactive
107 | VSGDPNMRLCAISIATGFVF | -0.468 ± 0.63
108 | VSGLRRSRSWWAFDVQSLLR | 0.544 ± 0.55
109 | VSGVYLRFRASCRSY | -0.105 ± 0.58
110 | VSHDGGLLRVWFMLALREGN | 0.003 ± 0.49
111 | VSIRTGGTCHYT | 0.123 ± 0.28
112 | VSKLLCLRMHMLKLW | -0.48 ± 0.48
113 | VSKSYPIPCISKVS | 0.336 ± 0.52
114 | VSLHSRINTVSPRKGLGSYS | 0.275 ± 0.71
115 | VSLINRRYCPATVFGF | 0.117 ± 0.4
116 | VSNFLSYNRWAHHGLFNSSF | 0.553 ± 0.53
117 | VSPGVFMGVLLMALKFFQAK | -0.303 ± 0.71
118 | VSRPQMSSTTEHSTTDYFGC | inactive
119 | VSRWSGEEPISCSYGTLR | -0.164 ± 0.6
120 | VSSHSMGFIVSVVMTCEYRS | 1.23 ± 0.7
121 | VSSNYMRNML | 0.169 ± 0.34
122 | VSTNKRVVGMRRFGTYTRYV | -0.309 ± 0.6
123 | VSTQIRRDGYDYAAVGHC | 0.009 ± 0.8
124 | VSVFDVWRMQCGNSLVKEGG | -0.088 ± 0.42
125 | VSWWNCLL | -1.28 ± 2.4

Row | Substance | amyloid nucleation score
126 | VSYQGTSAFDGSRKVVGPTL | 0.353 ± 0.54
127 | VTHGHVGTVGSWVVRTTAFM | -0.937 ± 2.1
128 | VTLPSAMQGSHFTWGPNVAF | -0.422 ± 1.2
129 | VTLQQRLCSFYMLIVEFASS | 0.045 ± 0.43
130 | VTMNRIV | 0.501 ± 0.21
131 | VTRTYLNRMRSMLSGSMFFM | 0.423 ± 0.35
132 | VVATKLSV | -0.95 ± 1.4
133 | VVCARVLRWEVGYVFGKIER | inactive
134 | VVCVLRVVDVMFASRS | 0.694 ± 1.2
135 | VVFRGAVREVQGSWESCILA | 0.676 ± 0.52
136 | VVHRALLYGNGIVN | 1.4 ± 0.7
137 | VVIGILSEYATKTNWFCSIY | 1.08 ± 0.2
138 | VVLDAFIPWYSLLATSSVGA | -0.777 ± 2.4
139 | VVLGLWV | inactive
140 | VVLKNHRHSVLSWWLTS | -0.622 ± 0.56
141 | VVLLQLQCHEPFYSPKPQQA | -0.048 ± 0.51
142 | VVLPGYMLNGFPNESNLIWP | -1.22 ± 0.49
143 | VVLPRLRGNLVCDEIES | 2.07 ± 0.53
144 | VVMNLLVLIGYLSSLYFLQA | -1.04 ± 1.9
145 | VVMQACNLNMCFMNGCRRGC | 7.304 ± 0.045
146 | VVMVLSKGPDIRSNMRCSSV | -1.9 ± 1.4
147 | VVNWIASMGCIFYRVPNVSG | 4.66 ± 0.13
148 | VVQAVIR | -1.01 ± 1.7
149 | VVSDRRFYLLKFKSGVLSLV | -0.043 ± 0.31
150 | VVTRDQLYQ | -0.817 ± 1.7

Row | Substance | amyloid nucleation score
151 | VVVEKLAQLNHVKAEPMVSG | 0.335 ± 0.57
152 | VVYIHFAII | 0.439 ± 0.69
153 | VWFVVGGGE | 1.7 ± 0.42
154 | VWIALFDVTDDMSARTDIWS | -0.876 ± 0.74
155 | VWISWMSRISITRLCVWGSV | 0.379 ± 0.41
156 | VWSGEE | -0.344 ± 0.38
157 | VWTMIYSTCGSDFYFCSVEL | 0.715 ± 0.47
158 | VWTYNLI | inactive
159 | VWVHD | 0.257 ± 0.26
160 | VWWHYLSLYAIWYSYVRLYV | -0.097 ± 0.52
161 | VWYWLSNNLDVW | 0.809 ± 0.98
162 | VYAYTRY | 0.194 ± 0.68
163 | VYCFCQNRSSFYGKMHLGMH | 1.25 ± 0.62
164 | VYKCSQVDRVCKMAWVGLKS | 0.205 ± 0.34
165 | VYLNFTISKVEVVTFFFIMG | 0.165 ± 0.34
166 | VYLVMSVCGTRNGYKHSSQL | 0.265 ± 0.25
167 | VYNLFVEVVPILKNRLWFNY | 4.44 ± 0.094
168 | VYNWRLMEYHRGWDHFCYLS | -0.559 ± 0.33
169 | VYRDLVDAYVTDYMCWGAPG | inactive
170 | VYRSHLRTNFSTFTSMSSVL | -0.626 ± 1.4
171 | VYYLIVHLHSGMLHQIVELS | 0.707 ± 0.51
